# Positions count from the first letter of the chain named.
# T1: human TIM-3 on CHOK1 stable cell line (CHOK1-hTIM-3) (human, UniProt Q8TDQ0 22-301)
# T1 sequence: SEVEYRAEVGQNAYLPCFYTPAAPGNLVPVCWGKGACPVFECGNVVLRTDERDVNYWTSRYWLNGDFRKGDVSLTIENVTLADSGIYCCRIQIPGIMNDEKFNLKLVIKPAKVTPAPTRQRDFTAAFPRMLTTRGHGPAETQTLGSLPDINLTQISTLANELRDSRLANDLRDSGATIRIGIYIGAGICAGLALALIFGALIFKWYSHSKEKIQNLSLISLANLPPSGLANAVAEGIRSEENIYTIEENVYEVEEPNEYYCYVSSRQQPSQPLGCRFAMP
# T2: monkey TIM-3 on CHOK1 stable cell line (CHOK1-cTIM-3) (monkey)
# T2 chain: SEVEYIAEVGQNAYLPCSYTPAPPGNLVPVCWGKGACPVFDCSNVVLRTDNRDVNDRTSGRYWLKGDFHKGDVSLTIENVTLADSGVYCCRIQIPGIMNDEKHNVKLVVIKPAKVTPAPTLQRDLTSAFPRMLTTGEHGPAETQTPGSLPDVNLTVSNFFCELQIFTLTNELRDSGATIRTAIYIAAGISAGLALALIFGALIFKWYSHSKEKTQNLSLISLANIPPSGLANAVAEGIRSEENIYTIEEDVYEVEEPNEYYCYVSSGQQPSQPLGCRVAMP
# T3: human TIM-3 extracellular domain protein with hFc tag (hTIM-3-hFc) (human, UniProt Q8TDQ0 22-200)
# T3 construct: not shown: human IgG Fc fragment (hFc) of the pCpC vector
# T3 sequence: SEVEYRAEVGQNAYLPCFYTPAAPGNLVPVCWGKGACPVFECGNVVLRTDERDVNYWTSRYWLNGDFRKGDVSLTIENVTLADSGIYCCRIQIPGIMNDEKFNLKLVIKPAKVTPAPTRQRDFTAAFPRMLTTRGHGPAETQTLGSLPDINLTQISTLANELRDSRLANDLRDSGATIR
# T4: murine TIM-3 extracellular domain protein with hFc tag (mTIM-3-hFc) (mouse, UniProt Q8VIM0 29-191)
# T4 construct: also called mouse TIM-3 extracellular domain protein; not shown: human IgG Fc fragment (hFc) of the pCpC vector
# T4 chain: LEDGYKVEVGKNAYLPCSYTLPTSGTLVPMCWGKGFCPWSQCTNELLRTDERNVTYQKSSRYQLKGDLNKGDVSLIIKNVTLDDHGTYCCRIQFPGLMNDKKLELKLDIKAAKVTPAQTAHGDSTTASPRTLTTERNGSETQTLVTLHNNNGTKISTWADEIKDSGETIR
# B1: 7A4F10 fully human TIM-3 antibody (human IgG4, kappa) (antibody, V domains shown)
# VH: EVQLLESGGGLVQPGGSLRLSCAASGFTFRTHLISWVRQAPGKGLEWVAAITGSGGSTYYADSVKGRFIISRDNSKNTLFLQMNSLRAEDTAVYYCAKDGGSGSYDDFWGQGTLVTVSS
# VL: ETVLTQSPVTLSLSPGERATLSCRASQSVGSYLAWYQQKPGQAPRLLIYDASNRATGIPARFSGSGSGTDFTLTISSLEPEDFAVYYCQQRSNWPPTFGQGTKVEIK
# B2: 18D2H2 fully human TIM-3 antibody (human IgG4, kappa) (antibody, V domains shown)
# VH: EVQLVESGGDLVQPGGSLRLSCAASGFTFSTYWMTWVRQAPGRGLEWVANIKQDGSAKYYVDSVKGRFTLSRDDAKNSLYLQMNSLRAEDTAVYYCARGSNWFDYWGQGTLVTVSS
# VL: ETVMTQSPATLSVSPGERATLSCRANQNVYSNLAWYQQKPGQAPRLLIYDASTRATGFPARFSGSGSGTEFTLTISSLQSEDFAVYYCQQYNNWPLTFGGGTKVEIK
# B3: 34B6D8 fully human TIM-3 antibody (human IgG4, kappa) (antibody, V domains shown)
# VH: B2 VH with D10G, R43K, G44R, D54G, S56G, A57D, L70I, R72T, D74N, Y105P
# VL: EIVMTQSPATLSMSPGERATLSCRASQSVYDNLAWYQQKPGQAPRLLIYGASTRATGIPARFSGSGSGTEFTLTISSLQSEDFALYYCQQYTHWPITFGQGTRLEIK
# B4: 39E5H1 fully human TIM-3 antibody (human IgG4, kappa) (antibody, V domains shown)
# VH: EVQLVESGGGLVQPGGSLRLSCAASGFTFSSYWMSWVRQAPGKGLEWVANIKRGGSERYYVDSVKGRFTISGDNAKNSVYLQMNSLRAEDTAVYYCARGSNWFDPWGQGTLVTVSS
# VL: B3 VL with I2T, T10I, M13V, D31S, P40L, G50D, L85V, T92N, H93N
# Molecular target: T1, human TIM-3 on CHOK1 stable cell line …
# Test: FACS, CHOK1-hTIM-3 cells, 8 nM antibody
row,Binder,Mean fluorescence intensity
1,B1,308
2,B2,268
3,B3,219
4,B4,234

# Molecular target: T1, human TIM-3 on CHOK1 stable cell line …
# Test: FACS, CHOK1-hTIM-3 cells, 0.32 nM antibody
row,Binder,Mean fluorescence intensity
1,B1,90.1
2,B2,93.1
3,B3,76.9
4,B4,73.1

# Molecular target: T2, monkey TIM-3 on CHOK1 stable cell line …
# Test: FACS, CHOK1-cTIM-3 cells, 0.32 nM antibody
row,Binder,Mean fluorescence intensity
1,B1,52.7
2,B2,127
3,B3,109
4,B4,132

# Molecular target: T3, human TIM-3 extracellular domain …
# Test: ELISA, coated human TIM-3 ECD protein, 0 nM antibody
row,Binder,OD450
1,B1,0.08
2,B2,0.07
3,B3,0.09
4,B4,0.08

# Molecular target: T4, murine TIM-3 extracellular domain …
# Test: ELISA, coated mouse TIM-3 ECD protein, 0.0067 nM antibody
row,Binder,OD450
1,B1,0.23
2,B2,0.22
3,B3,0.24
4,B4,0.23

# Source: US20220033501A1 (SHANGHAI PHARMAEXPLORER, published 2022)
